Here are results for eight molecules from paper PMC5464963 (Cell Reports, 2017).

Sequences and labels used below:
B5: His-ECTO (His-tagged ENG ectodomain) of the purified His-ECTO-BMP9 complex (receptor, human, UniProt P17813 26-586, looked up)
chain: ETVHCDLQPVGPERGEVTYTTSQVSKGCVAQAPNAILEVHVLFLEFPTGPSQLELTLQASKQNGTWPREVLLVLSVNSSVFLHLQALGIPLHLAYNSSLVTFQEPPGVNTTELPSFPKTQILEWAAERGPITSAAELNDPQSILLRLGQAQGSLSFCMLEASQDMGRTLEWRPRTPALVRGCHLEGVAGHKEAHILRVLPGHSAGPRTVTVKVELSCAPGDLDAVLILQGPPYVSWLIDANHNMQIWTTGEYSFKIFPEKNIRGFKLPDTPQGLLGEARMLNASIVASFVELPLASIVSLHASSCGGRLQTSPAPIQTTPPKDTCSPELLMSLIQTKCADDAMTLVLKKELVAHLKCTITGLTFWDPSCEAEDRGDKFVLRSAYSSCGMQVSASMISNEAVVNILSSSSPQRKKVHCLNMDSLSFQLGLYLSPHFLQASNTIEPGQQSFVQVRVSPSVSEFLLQLDSCHLDLGPEGGTVELIQGRAAKGNCVSLLSPSPEGDPRFSFLLHFYTVPIPKTGTLSCTVALRPKTGSQDQEVHRTVFMRLNIISPDLSGCTSKG

For data set [1], the target named is T1, BMP9 as used in biolayer interferometry (human) (UniProt Q9UK05).
T1 sequence (Q9UK05 320-429, looked up): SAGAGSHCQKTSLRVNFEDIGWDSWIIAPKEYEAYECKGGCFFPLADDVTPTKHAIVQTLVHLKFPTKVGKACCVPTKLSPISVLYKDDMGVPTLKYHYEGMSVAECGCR
Briefly: BLI.

Data set [2] concerns the molecule itself. Briefly: non-reducing SDS-PAGE and immunoblot. A general note: A western blot detects proteins with antibodies after separation by electrophoresis.
Data set [3] concerns the molecule itself. The experiment in a line: SEC-MALS. (In general: Size exclusion chromatography separates by hydrodynamic size, large species first.)
Data set [4] addresses B5. Briefly: SEC-MALS.

B1: unfused (non-mMBP fused) wild-type OR, ENG E26-S337 (domain or fragment)
chain: ETVHCDLQPVGPERGEVTYTTSQVSKGCVAQAPNAILEVHVLFLEFPTGPSQLELTLQASKQNGTWPREVLLVLSVNSSVFLHLQALGIPLHLAYNSSLVTFQEPPGVNTTELPSFPKTQILEWAAERGPITSAAELNDPQSILLRLGQAQGSLSFCMLEASQDMGRTLEWRPRTPALVRGCHLEGVAGHKEAHILRVLPGHSAGPRTVTVKVELSCAPGDLDAVLILQGPPYVSWLIDANHNMQIWTTGEYSFKIFPEKNIRGFKLPDTPQGLLGEARMLNASIVASFVELPLASIVSLHASSCGGRLQTS
In general, Kd refers to the free concentration of one partner at which half of the binding sites on the other are occupied at equilibrium, for simple one-to-one binding. A high value points to lower affinity. What is called koff is a measure of how fast the partners let go of each other. A higher koff goes with a short-lived complex. Usually kon stands for the second-order rate constant of association. A lower kon goes with slow association. Take B1: in data set [1], the dissociation constant Kd came to 295 nM, the koff was determined as 0.0871 s⁻¹ and the kon came to 295000 M⁻¹ s⁻¹.

B2: ^MOR as used in biolayer interferometry (domain or fragment)
chain: ETVHCDLQPVGPERGEVTYTTSQVSKGCVAQAPNAILEVHVLFLEFPTGPSQLELTLQASKQNGTWPREVLLVLSVNSSVFLHLQALGIPLHLAYNSSLVTFQEPPGVNTTELPSFPKTQILEWAAERGPITSAAELNDPQSILLRLGQAQGSLSFCMLEASQDMGRTLEWRPRTPALVRGCHLEGVAGHKEAHILRVLPGHSAGPRTVTVKVELSCAPGDLDAVLILQGPPYVSWLIDANHNMQIWTTGEYSFKIFPEKNIRGFKLPDTPQGLLGEARMLNASIVASFVELPLASIVSLHASSCGGRLQTS
In data set [1], B2 showed a Kd of 179 nM, a koff of 0.0622 s⁻¹ and a kon of 349000 M⁻¹ s⁻¹.

B3: full-length ectodomain of ENG (ECTO) as used in biolayer interferometry (receptor)
chain: ETVHCDLQPVGPERGEVTYTTSQVSKGCVAQAPNAILEVHVLFLEFPTGPSQLELTLQASKQNGTWPREVLLVLSVNSSVFLHLQALGIPLHLAYNSSLVTFQEPPGVNTTELPSFPKTQILEWAAERGPITSAAELNDPQSILLRLGQAQGSLSFCMLEASQDMGRTLEWRPRTPALVRGCHLEGVAGHKEAHILRVLPGHSAGPRTVTVKVELSCAPGDLDAVLILQGPPYVSWLIDANHNMQIWTTGEYSFKIFPEKNIRGFKLPDTPQGLLGEARMLNASIVASFVELPLASIVSLHASSCGGRLQTSPAPIQTTPPKDTCSPELLMSLIQTKCADDAMTLVLKKELVAHLKCTITGLTFWDPSCEAEDRGDKFVLRSAYSSCGMQVSASMISNEAVVNILSSSSPQRKKVHCLNMDSLSFQLGLYLSPHFLQASNTIEPGQQSFVQVRVSPSVSEFLLQLDSCHLDLGPEGGTVELIQGRAAKGNCVSLLSPSPEGDPRFSFLLHFYTVPIPKTGTLSCTVALRPKTGSQDQEVHRTVFMRLNIISPDLSGCTSKG
In data set [1], B3 registered a Kd of 9.81 nM, a koff of 0.00198 s⁻¹ and a kon of 200000 M⁻¹ s⁻¹.

B4: His-^MECTO (His-tagged, mMBP-fused ENG ectodomain) (receptor, human, UniProt P17813 26-586, looked up)
chain: ETVHCDLQPVGPERGEVTYTTSQVSKGCVAQAPNAILEVHVLFLEFPTGPSQLELTLQASKQNGTWPREVLLVLSVNSSVFLHLQALGIPLHLAYNSSLVTFQEPPGVNTTELPSFPKTQILEWAAERGPITSAAELNDPQSILLRLGQAQGSLSFCMLEASQDMGRTLEWRPRTPALVRGCHLEGVAGHKEAHILRVLPGHSAGPRTVTVKVELSCAPGDLDAVLILQGPPYVSWLIDANHNMQIWTTGEYSFKIFPEKNIRGFKLPDTPQGLLGEARMLNASIVASFVELPLASIVSLHASSCGGRLQTSPAPIQTTPPKDTCSPELLMSLIQTKCADDAMTLVLKKELVAHLKCTITGLTFWDPSCEAEDRGDKFVLRSAYSSCGMQVSASMISNEAVVNILSSSSPQRKKVHCLNMDSLSFQLGLYLSPHFLQASNTIEPGQQSFVQVRVSPSVSEFLLQLDSCHLDLGPEGGTVELIQGRAAKGNCVSLLSPSPEGDPRFSFLLHFYTVPIPKTGTLSCTVALRPKTGSQDQEVHRTVFMRLNIISPDLSGCTSKG
Take B4: the “stoichiometry N” value in data set [2] stood at 2.

For B5, in data set [3], the “stoichiometry N” value amounted to 2.

B6: ECTO-Myc (Myc-tagged ENG ectodomain) (receptor, human, UniProt P17813 26-586, looked up)
chain: ETVHCDLQPVGPERGEVTYTTSQVSKGCVAQAPNAILEVHVLFLEFPTGPSQLELTLQASKQNGTWPREVLLVLSVNSSVFLHLQALGIPLHLAYNSSLVTFQEPPGVNTTELPSFPKTQILEWAAERGPITSAAELNDPQSILLRLGQAQGSLSFCMLEASQDMGRTLEWRPRTPALVRGCHLEGVAGHKEAHILRVLPGHSAGPRTVTVKVELSCAPGDLDAVLILQGPPYVSWLIDANHNMQIWTTGEYSFKIFPEKNIRGFKLPDTPQGLLGEARMLNASIVASFVELPLASIVSLHASSCGGRLQTSPAPIQTTPPKDTCSPELLMSLIQTKCADDAMTLVLKKELVAHLKCTITGLTFWDPSCEAEDRGDKFVLRSAYSSCGMQVSASMISNEAVVNILSSSSPQRKKVHCLNMDSLSFQLGLYLSPHFLQASNTIEPGQQSFVQVRVSPSVSEFLLQLDSCHLDLGPEGGTVELIQGRAAKGNCVSLLSPSPEGDPRFSFLLHFYTVPIPKTGTLSCTVALRPKTGSQDQEVHRTVFMRLNIISPDLSGCTSKG
As for B6, the “stoichiometry N” value in data set [2] was determined as 2.

B7: ^MZP (mMBP-fused ENG P338-G581, zona pellucida module) (domain or fragment, human, UniProt P17813 338-581, looked up)
chain: PAPIQTTPPKDTCSPELLMSLIQTKCADDAMTLVLKKELVAHLKCTITGLTFWDPSCEAEDRGDKFVLRSAYSSCGMQVSASMISNEAVVNILSSSSPQRKKVHCLNMDSLSFQLGLYLSPHFLQASNTIEPGQQSFVQVRVSPSVSEFLLQLDSCHLDLGPEGGTVELIQGRAAKGNCVSLLSPSPEGDPRFSFLLHFYTVPIPKTGTLSCTVALRPKTGSQDQEVHRTVFMRLNIISPDLSG
B7: the “stoichiometry N” value in data set [2] came out at 2.

B8: bone morphogenetic protein 9 (BMP9), mature homodimer, untagged, expressed in HEK293 cells (ligand, human, UniProt Q9UK05 320-429, looked up)
chain: SAGAGSHCQKTSLRVNFEDIGWDSWIIAPKEYEAYECKGGCFFPLADDVTPTKHAIVQTLVHLKFPTKVGKACCVPTKLSPISVLYKDDMGVPTLKYHYEGMSVAECGCR
As to B8, in data set [4], the “stoichiometry N” value was 1 2:2 (ENG chains : BMP9 chains).
